Laboratory results reported in paper PMC12635394, “UBE2O-mediated ubiquitylation directs cytoplasmic CTNNA1 to promote cell-to-ECM adhesions” (EMBO Reports, 2025).

T1: Flag-UBE2O-TwinStrep (purified full-length human UBE2O, wild type) (human, UniProt Q9C0C9 1-1292)
T1 construct: UBE2O, human, full-length WT in N-terminal Flag-tagged and C-terminal TwinStrep-tagged pLV vector; also called Flag-UBE2O-TS; Flag-UBE2O-WT-TwinStrep; source: Expi293F, transfected, purified (Strep-Tactin XT, Superdex 200); not shown: Flag, N-terminal, kept; TwinStrep, C-terminal, kept
T1 sequence (looked up): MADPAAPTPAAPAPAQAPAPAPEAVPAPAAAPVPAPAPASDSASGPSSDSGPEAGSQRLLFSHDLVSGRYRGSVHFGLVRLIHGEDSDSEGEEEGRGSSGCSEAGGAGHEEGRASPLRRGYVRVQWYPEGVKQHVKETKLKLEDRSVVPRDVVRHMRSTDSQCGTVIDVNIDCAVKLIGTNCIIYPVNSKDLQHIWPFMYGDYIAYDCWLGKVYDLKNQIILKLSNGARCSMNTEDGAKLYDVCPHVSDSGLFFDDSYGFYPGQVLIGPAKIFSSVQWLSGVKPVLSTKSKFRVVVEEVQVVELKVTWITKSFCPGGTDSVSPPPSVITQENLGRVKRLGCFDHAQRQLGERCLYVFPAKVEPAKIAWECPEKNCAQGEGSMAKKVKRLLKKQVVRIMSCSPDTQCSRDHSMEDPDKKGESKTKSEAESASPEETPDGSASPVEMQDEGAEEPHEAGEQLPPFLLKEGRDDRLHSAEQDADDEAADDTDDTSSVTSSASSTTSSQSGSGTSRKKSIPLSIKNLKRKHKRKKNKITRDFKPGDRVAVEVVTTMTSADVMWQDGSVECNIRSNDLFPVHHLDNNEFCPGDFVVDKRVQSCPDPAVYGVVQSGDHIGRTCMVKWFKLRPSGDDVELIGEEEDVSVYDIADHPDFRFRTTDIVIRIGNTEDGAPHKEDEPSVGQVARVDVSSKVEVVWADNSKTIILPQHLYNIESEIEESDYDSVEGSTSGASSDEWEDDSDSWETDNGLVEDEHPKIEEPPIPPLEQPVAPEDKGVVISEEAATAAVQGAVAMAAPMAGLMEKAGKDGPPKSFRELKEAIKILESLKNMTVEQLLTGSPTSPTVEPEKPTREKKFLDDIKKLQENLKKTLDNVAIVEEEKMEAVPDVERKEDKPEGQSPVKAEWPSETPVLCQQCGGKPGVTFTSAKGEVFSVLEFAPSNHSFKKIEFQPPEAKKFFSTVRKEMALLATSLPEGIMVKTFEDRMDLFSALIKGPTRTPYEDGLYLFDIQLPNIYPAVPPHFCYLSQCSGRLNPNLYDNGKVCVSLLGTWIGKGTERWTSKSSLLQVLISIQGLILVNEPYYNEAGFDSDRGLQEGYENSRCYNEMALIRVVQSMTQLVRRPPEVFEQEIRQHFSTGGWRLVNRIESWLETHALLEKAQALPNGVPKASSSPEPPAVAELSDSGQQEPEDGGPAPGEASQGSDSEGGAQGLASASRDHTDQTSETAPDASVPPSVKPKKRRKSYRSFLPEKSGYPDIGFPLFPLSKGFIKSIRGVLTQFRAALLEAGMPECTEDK


Key:
[1] = biological target: T1, Flag-UBE2O-TwinStrep (purified …); experiment: pull-down; 0.1 μM purified Flag-UBE2O-TS mixed with 0.1 μM purified CTNNA1-Myc in lysis buffer, captured on anti-c-Myc magnetic beads, 4 °C, 1.5 h, immunoblot; details: both partners purified
[2] = biological target: T1, Flag-UBE2O-TwinStrep (purified …); experiment: pull-down; 0.1 μM CTNNA1-V5 pre-incubated overnight at 4 °C with 0, 25 or 50 nM His-GST-β-catenin, captured on BSA-blocked V5-Trap beads, washed, then 0.1 μM Flag-UBE2O-TS for 1.5 h at 4 °C, immunoblot; details: both partners purified

| binding result [1] | binding result [2] | Binder |
| --- | --- | --- |
| binds | – | CTNNA1-Myc (purified mouse CTNNA1 with C-terminal Myc tag) (natural protein, UniProt P26231 1-906, looked up, αE-catenin (CTNNA1), mouse; full-length Ctnna1 in C-terminal Myc-tagged pGEX-6P-1; also called mCTNNA1-Myc; pGEX-6P-1-CTNNA1-Myc; source: E. coli BL21 (DE3), purified (glutathione resin, GST removed with PreScission protease); not shown: Myc, C-terminal, kept) MTAVHAGNINFKWDPKSLEIRTLAVERLLEPLVTQVTTLVNTNSKGPSNKKRGRSKKAHVLAASVEQATENFLEKGDKIAKESQFLKEELVVAVEDVRKQGDLMKSAAGEFADDPCSSVKRGNMVRAARALLSAVTRLLILADMADVYKLLVQLKVVEDGILKLRNAGNEQDLGIQYKALKPEVDKLNIMAAKRQQELKDVGNRDQMAAARGILQKNVPILYTASQACLQHPDVAAYKANRDLIYKQLQQAVTGISNAAQATASDDAAQHQGGSGGELAYALNNFDKQIIVDPLSFSEERFRPSLEERLESIISGAALMADSSCTRDDRRERIVAECNAVRQALQDLLSEYMGNAGRKERSDALNSAIDKMTKKTRDLRRQLRKAVMDHVSDSFLETNVPLLVLIEAAKNGNEKEVKEYAQVFREHANKLIEVANLACSISNNEEGVKLVRMSASQLEALCPQVINAALALAAKPQSKLAQENMDLFKEQWEKQVRVLTDAVDDITSIDDFLAVSENHILEDVNKCVIALQEKDVDGLDRTAGAIRGRAARVIHVVTSEMDNYEPGVYTEKVLEATKLLSNTVMPRFTEQVEAAVEALSSDPAQPMDENEFIDASRLVYDGIRDIRKAVLMIRTPEELDDSDFETEDFDVRSRTSVQTEDDQLIAGQSARAIMAQLPQEQKAKIAEQVASFQEEKSKLDAEVSKWDDSGNDIIVLAKQMCMIMMEMTDFTRGKGPLKNTSDVISAAKKIAEAGSRMDKLGRTIADHCPDSACKQDLLAYLQRIALYCHQLNICSKVKAEVQNLGGELVVSGVDSAMSLIQAAKNLMNAVVQTVKASYVASTKYQKSQGMASLNLPAVSWKMKAPEKKPLVKREKQDETQTKIKRASQKKHVNPVQALSEFKAMDSI |
| – | binds | CTNNA1-V5 (purified mouse CTNNA1 with C-terminal V5 tag) (natural protein, UniProt P26231 1-906, looked up, αE-catenin (CTNNA1), mouse; full-length Ctnna1 in C-terminal V5-tagged pGEX-6P-1; As the unmodified 'CTNNA1' bait it went through the ubiquitylation reaction without ATP before capture on V5-Trap; also called mCTNNA1-V5; CTNNA1 bait; source: E. coli BL21 (DE3), purified (glutathione resin, GST removed with PreScission protease); not shown: V5, C-terminal, kept) MTAVHAGNINFKWDPKSLEIRTLAVERLLEPLVTQVTTLVNTNSKGPSNKKRGRSKKAHVLAASVEQATENFLEKGDKIAKESQFLKEELVVAVEDVRKQGDLMKSAAGEFADDPCSSVKRGNMVRAARALLSAVTRLLILADMADVYKLLVQLKVVEDGILKLRNAGNEQDLGIQYKALKPEVDKLNIMAAKRQQELKDVGNRDQMAAARGILQKNVPILYTASQACLQHPDVAAYKANRDLIYKQLQQAVTGISNAAQATASDDAAQHQGGSGGELAYALNNFDKQIIVDPLSFSEERFRPSLEERLESIISGAALMADSSCTRDDRRERIVAECNAVRQALQDLLSEYMGNAGRKERSDALNSAIDKMTKKTRDLRRQLRKAVMDHVSDSFLETNVPLLVLIEAAKNGNEKEVKEYAQVFREHANKLIEVANLACSISNNEEGVKLVRMSASQLEALCPQVINAALALAAKPQSKLAQENMDLFKEQWEKQVRVLTDAVDDITSIDDFLAVSENHILEDVNKCVIALQEKDVDGLDRTAGAIRGRAARVIHVVTSEMDNYEPGVYTEKVLEATKLLSNTVMPRFTEQVEAAVEALSSDPAQPMDENEFIDASRLVYDGIRDIRKAVLMIRTPEELDDSDFETEDFDVRSRTSVQTEDDQLIAGQSARAIMAQLPQEQKAKIAEQVASFQEEKSKLDAEVSKWDDSGNDIIVLAKQMCMIMMEMTDFTRGKGPLKNTSDVISAAKKIAEAGSRMDKLGRTIADHCPDSACKQDLLAYLQRIALYCHQLNICSKVKAEVQNLGGELVVSGVDSAMSLIQAAKNLMNAVVQTVKASYVASTKYQKSQGMASLNLPAVSWKMKAPEKKPLVKREKQDETQTKIKRASQKKHVNPVQALSEFKAMDSI |
